{"source": "patent US20200353049A1", "key": {"[1]": {"target": "IL-22R1a extracellular domain (ECD) (UniProt Q8N6P7)", "sequence (Q8N6P7 16-228 limits assumed)": "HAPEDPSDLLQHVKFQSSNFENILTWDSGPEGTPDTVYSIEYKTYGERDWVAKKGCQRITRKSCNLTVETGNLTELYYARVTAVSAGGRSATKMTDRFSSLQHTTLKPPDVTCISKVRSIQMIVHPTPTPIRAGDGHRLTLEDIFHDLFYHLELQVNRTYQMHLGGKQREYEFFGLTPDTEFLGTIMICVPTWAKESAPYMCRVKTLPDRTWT", "assay": "binding ELISA on plate-coated IL-22R1a ECD, relative to Reference Standard (100%); stored -20 C, 6 months"}, "[2]": {"target": "IL-22R1a extracellular domain (ECD) (UniProt Q8N6P7)", "assay": "potency assay (binding ELISA on plate-coated IL-22R1a ECD), relative to reference standard (100%); stored 5 C, 24 months"}, "[3]": {"target": "IL-22R1a extracellular domain (ECD) (UniProt Q8N6P7)", "assay": "potency assay (binding ELISA on plate-coated IL-22R1a ECD), relative to reference standard (100%); stored 5 C, 12 months (time printed as 180/12)"}, "[4]": {"target": "IL-22R1a extracellular domain (ECD) (UniProt Q8N6P7)", "assay": "binding ELISA on plate-coated IL-22R1a ECD, relative to Reference Standard; 10 mM sodium phosphate, 240 mM sucrose, 0.02% PS20, pH 7.0; control sample"}, "[5]": {"target": "IL-22R1a extracellular domain (ECD) (UniProt Q8N6P7)", "assay": "potency assay (binding ELISA on plate-coated IL-22R1a ECD), relative to reference standard (100%); stored 5 C, 42 months"}}, "data": [{"substance": "IL-22 Fc fusion protein", "values": [{"measurement": "Potency by Binding Assay (% relative potency) (% relative potency)", "setting": "[1]", "result": 73}, {"measurement": "Potency (% relative potency) (% relative potency)", "setting": "[2]", "result": 66}, {"measurement": "Potency (% relative potency) (% relative potency)", "setting": "[3]", "result": 86}, {"measurement": "Estimated % relative potency (n = 2) (% relative potency)", "setting": "[4]", "result": 89}, {"measurement": "Potency (% relative potency) (% relative potency)", "setting": "[5]", "result": 59}]}]}
